Source: patent US11352401

The binders below were run against T1, HLA-A*01 (human) (assay: UV peptide-exchange ELISA; ++++ = yield >75%).
T1 construct: MHC monomer made peptide-receptive by UV cleavage of a UV-sensitive ligand; also called peptide-receptive MHC class I monomer
Description: Candidate peptides for T cell based therapies according to the present invention were further tested for their MHC binding capacity (affinity). The individual peptide-MHC complexes were produced by UV-ligand exchange, where a UV-sensitive peptide is cleaved upon UV-irradiation, and exchanged with the peptide of interest as analyzed. Only peptide candidates that can effectively bind and stabilize the peptide-receptive MHC molecules prevent dissociation of the MHC complexes. To determine the yield of the exchange reaction, an ELISA was performed based on the detection of the light chain (β2m) of stabilized MHC complexes. The assay was performed as generally described in Rodenko et al. (Rodenko et al., 2006).
96 well MAXISorp plates (NUNC) were coated over night with 2 ug/ml streptavidin in PBS at room temperature, washed 4× and blocked for 1 h at 37° C. in 2% BSA containing blocking buffer. […] Peptide-MHC monomers of the UV-exchange reaction were diluted 100-fold in blocking buffer. Samples were incubated for 1 h at 37° C., washed four times, incubated with 2 ug/ml HRP conjugated anti-β2m for 1h at 37° C., washed again and detected with TMB solution that is stopped with […]. Absorption was measured at 450 nm.

| Binder | peptide exchange yield |
| --- | --- |
| YVGKEHMFY [YVGKEHMFY (SEQ ID NO: 201)] | > 75% |
| ASEFGNHYLY [ASEFGNHYLY (SEQ ID NO: 396)] | > 75% |
| LSDTSVIQFY [LSDTSVIQFY (SEQ ID NO: 159)] | > 75% |
| ISDRYYTALY [ISDRYYTALY (SEQ ID NO: 413)] | > 75% |
| GTEFTTILY [GTEFTTILY (SEQ ID NO: 148)] | > 75% |
| GTEFTTVLY [GTEFTTVLY (SEQ ID NO: 149)] | > 75% |
| VSDSECLSRY [VSDSECLSRY (SEQ ID NO: 189)] | > 75% |
| QIDTGENLY [QIDTGENLY (SEQ ID NO: 433)] | > 75% |
| STDPWIQMAY [STDPWIQMAY (SEQ ID NO: 180)] | > 75% |
| STDGKHWWEY [STDGKHWWEY (SEQ ID NO: 437)] | > 75% |
| YSDEDVTKY [YSDEDVTKY (SEQ ID NO: 200)] | > 75% |
| NTEDSSMSGYLY [NTEDSSMSGYLY (SEQ ID NO: 429)] | > 75% |
| SSDEVNFLVY [SSDEVNFLVY (SEQ ID NO: 177)] | > 75% |
| YLDPVQRDLY [YLDPVQRDLY (SEQ ID NO: 198)] | > 75% |
| YSDSLVQKGY [YSDSLVQKGY (SEQ ID NO: 451)] | > 75% |
| LLEDKHFQSY [LLEDKHFQSY (SEQ ID NO: 417)] | > 75% |
| TLDSALNAASYY [TLDSALNAASYY (SEQ ID NO: 441)] | > 75% |
| NSDEQKITEMVY [NSDEQKITEMVY (SEQ ID NO: 427)] | > 75% |
| ASEAEMRLFY [ASEAEMRLFY (SEQ ID NO: 394)] | > 75% |
| ATSKFMEFY [ATSKFMEFY (SEQ ID NO: 137)] | > 75% |
| QTDHPQPILDRY [QTDHPQPILDRY (SEQ ID NO: 168)] | > 75% |
| ASEASRLAHY [ASEASRLAHY (SEQ ID NO: 395)] | > 75% |
| LTELLERAAFY [LTELLERAAFY (SEQ ID NO: 421)] | > 75% |

| Binder | peptide exchange yield |
| --- | --- |
| TSDFSRFTNY [TSDFSRFTNY (SEQ ID NO: 442)] | > 75% |
| SADDIRGIQSLY [SADDIRGIQSLY (SEQ ID NO: 174)] | > 75% |
| LTEDKETLQY [LTEDKETLQY (SEQ ID NO: 420)] | > 75% |
| VTEESFDSKFY [VTEESFDSKFY (SEQ ID NO: 192)] | > 75% |
| NSELSCQLY [NSELSCQLY (SEQ ID NO: 428)] | > 75% |
| VTEFSLNTY [VTEFSLNTY (SEQ ID NO: 193)] | > 75% |
| ETARKFLYY [ETARKFLYY (SEQ ID NO: 404)] | > 75% |
| FSDNDKLYLY [FSDNDKLYLY (SEQ ID NO: 407)] | > 75% |
| YVDAVLGKGHQY [YVDAVLGKGHQY (SEQ ID NO: 452)] | > 75% |
| RTEFNLNQY [RTEFNLNQY (SEQ ID NO: 173)] | > 75% |
| NTEGLHHLY [NTEGLHHLY (SEQ ID NO: 430)] | > 75% |
| ETEEGIYWRY [ETEEGIYWRY (SEQ ID NO: 405)] | > 75% |
| RLDTPLYFSY [RLDTPLYFSY (SEQ ID NO: 169)] | > 75% |
| LSDLLKQGY [LSDLLKQGY (SEQ ID NO: 158)] | > 75% |
| QTDDTWRTEY [QTDDTWRTEY (SEQ ID NO: 435)] | > 75% |
| TSDSNLNKY [TSDSNLNKY (SEQ ID NO: 185)] | > 75% |
| DSDSCHFNY [DSDSCHFNY (SEQ ID NO: 138)] | > 75% |
| RSDPVTLNVLY [RSDPVTLNVLY (SEQ ID NO: 171)] | > 75% |
| VTAQVVGTERY [VTAQVVGTERY (SEQ ID NO: 446)] | > 75% |
| QTDCAPNNGY [QTDCAPNNGY (SEQ ID NO: 434)] | > 75% |
| GTVYEDLRY [GTVYEDLRY (SEQ ID NO: 411)] | > 75% |
| GSDHQSPSSSSY [GSDHQSPSSSSY (SEQ ID NO: 410)] | > 75% |
| ASEITSKGASLY [ASEITSKGASLY (SEQ ID NO: 397)] | > 75% |

| Binder | peptide exchange yield |
| --- | --- |
| DSDESYMEKSLY [DSDESYMEKSLY (SEQ ID NO: 401)] | > 75% |
| AAEIGDKSWLY [AAEIGDKSWLY (SEQ ID NO: 134)] | > 75% |
| MIDVTKSYY [MIDVTKSYY (SEQ ID NO: 422)] | > 75% |
| YLDRGTGNVSFY [YLDRGTGNVSFY (SEQ ID NO: 449)] | > 75% |
| LLDPNPHMY [LLDPNPHMY (SEQ ID NO: 155)] | > 75% |
| TTDFPSESSFEY [TTDFPSESSFEY (SEQ ID NO: 443)] | > 75% |
| NTSDMMGRMSY [NTSDMMGRMSY (SEQ ID NO: 431)] | > 75% |
| NLDAVHDITVAY [NLDAVHDITVAY (SEQ ID NO: 423)] | > 75% |
| STAKSATWTY [STAKSATWTY (SEQ ID NO: 179)] | > 75% |
| LSELKPMSY [LSELKPMSY (SEQ ID NO: 419)] | > 75% |
| GTELLSLVY [GTELLSLVY (SEQ ID NO: 150)] | > 75% |
| LLDTAQKNLY [LLDTAQKNLY (SEQ ID NO: 416)] | > 75% |
| LMDRPIFY [LMDRPIFY (SEQ ID NO: 157)] | > 75% |
| RSDDTAVYY [RSDDTAVYY (SEQ ID NO: 170)] | > 75% |
| FVDPLVTNY [FVDPLVTNY (SEQ ID NO: 409)] | > 75% |
| NLDIIQQEY [NLDIIQQEY (SEQ ID NO: 425)] | > 75% |
| ASEDSVLLY [ASEDSVLLY (SEQ ID NO: 135)] | > 75% |
| ILDEVIMGY [ILDEVIMGY (SEQ ID NO: 412)] | > 75% |
| YSDDGQKWTVY [YSDDGQKWTVY (SEQ ID NO: 450)] | > 75% |
| TLEDIATSHLY [TLEDIATSHLY (SEQ ID NO: 183)] | > 75% |
| QTETGTPYMLY [QTETGTPYMLY (SEQ ID NO: 436)] | > 75% |
| ATDIPCLLY [ATDIPCLLY (SEQ ID NO: 399)] | > 75% |
